Data reported in publication PMC12400406 (Organic Letters, 2025).

Columns and labels:
CmnA-A2-CmnN = target: T1, CmnA-A2-CmnN (Saccharothrix mutabilis, UniProt A6YEH2); experiment: enzyme activity assay (amino acid activation); assay type: biochemical
T1 construct: second adenylation domain of CmnA, with MbtH-like protein CmnN, recombinant; with MbtH-like protein CmnN
T1 sequence (A6YEH2 1420-1895 limits assumed): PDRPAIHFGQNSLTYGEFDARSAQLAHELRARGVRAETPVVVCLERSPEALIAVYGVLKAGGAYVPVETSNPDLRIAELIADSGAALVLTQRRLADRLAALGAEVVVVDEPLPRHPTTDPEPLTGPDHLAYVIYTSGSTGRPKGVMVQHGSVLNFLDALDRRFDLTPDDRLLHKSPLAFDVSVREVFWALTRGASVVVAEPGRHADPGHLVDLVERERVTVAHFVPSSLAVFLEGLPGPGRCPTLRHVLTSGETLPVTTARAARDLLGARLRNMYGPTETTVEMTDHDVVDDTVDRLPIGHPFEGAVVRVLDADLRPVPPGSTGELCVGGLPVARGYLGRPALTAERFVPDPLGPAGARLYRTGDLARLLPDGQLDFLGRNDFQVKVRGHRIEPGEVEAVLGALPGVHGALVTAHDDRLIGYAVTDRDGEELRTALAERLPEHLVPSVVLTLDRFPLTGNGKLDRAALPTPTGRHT
T1 sequence (A6YEI5 1-62 partner): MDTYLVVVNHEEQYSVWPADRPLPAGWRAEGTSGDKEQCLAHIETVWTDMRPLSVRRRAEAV

CmnA-A1–CmnN = target: T2, CmnA-A1–CmnN (Saccharothrix mutabilis, UniProt A6YEH2); experiment: in vitro loading onto CmnI-T, intact protein Q-TOF MS; adenylation activity assay; assay type: biochemical; conditions: ATP, Mg2+; holo-CmnI-T as acceptor
T2 construct: first adenylation domain (module 1) of CmnA, co-expressed with MbtH-like protein CmnN in E. coli; with MbtH-like protein CmnN
T2 sequence (A6YEH2 450-890 limits assumed): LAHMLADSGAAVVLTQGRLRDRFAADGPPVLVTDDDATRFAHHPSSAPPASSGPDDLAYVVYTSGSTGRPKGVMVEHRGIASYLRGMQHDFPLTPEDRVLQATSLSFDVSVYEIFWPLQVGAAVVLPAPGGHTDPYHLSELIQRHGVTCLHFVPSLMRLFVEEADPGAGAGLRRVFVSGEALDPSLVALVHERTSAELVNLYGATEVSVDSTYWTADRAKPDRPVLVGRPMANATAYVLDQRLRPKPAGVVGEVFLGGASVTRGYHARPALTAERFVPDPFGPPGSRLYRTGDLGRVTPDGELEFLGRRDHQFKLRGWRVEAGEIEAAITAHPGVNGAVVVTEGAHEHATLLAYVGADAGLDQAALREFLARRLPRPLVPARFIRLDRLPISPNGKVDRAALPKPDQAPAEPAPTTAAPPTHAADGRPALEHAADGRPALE
T2 sequence (A6YEI5 1-62 partner): T1 sequence (A6YEI5 1-62 partner)

CmnA-A2-CmnN complex = CmnA-A2-CmnN complex (Saccharothrix mutabilis subsp. capreolus, UniProt A6YEI5 1-62, The printed limits Leu1832-Gly1896 give only 65 residues, which does not fit the stated 55.5 kDa. They are read as a digit transposition of Leu1382-Gly1896 (515 residues). An added initiator Met is le); experiment: BLI; biolayer interferometry; which partner was immobilised and the conditions are in the Supporting Information (not shown); conditions: both partners purified
CmnA-A1–CmnN complex = CmnA-A1–CmnN complex (Saccharothrix mutabilis subsp. capreolus, UniProt A6YEI5 1-62, An added initiator Met precedes His364 and is left out. The His-tag on CmnN is thrombin-cleaved. A6YEI5 is taken as CmnN because it is MbtH-like.); experiment: as above; conditions: both partners purified

In the case of `N[C@@H](CO)C(=O)O` [L-Ser], the “enzyme activity assay (amino acid activation)” value (CmnA-A2-CmnN) is reported as “CmnA-A2 is capable of activating both L-Ser and L-Ala”.

For `NC[C@H](N)C(=O)O` [L-Dap], the “in vitro loading onto CmnI-T, intact protein Q-TOF MS; adenylation activity assa” value (CmnA-A1–CmnN) was “CmnA-A1 specifically recognizes and activates the nonproteinogenic amino acid L-Dap”.

In the case of `C[C@H](N)C(=O)O` [L-Ala], the “enzyme activity assay (amino acid activation)” value (CmnA-A2-CmnN) is reported as “CmnA-A2 is capable of activating both L-Ser and L-Ala”.

B1: CmnI (enzyme, Saccharothrix mutabilis subsp. capreolus, UniProt A6YEI0 1-548, looked up)
chain: MTTETPATTGAPATTGAPAPPGRAEIVAAVLPVFAEVLDAPDLTPDSDFFVHGGNSLLAIRVAGRVGRRLGRQVPPAGVLKHPTPDLLAAHLEEEFRGGGAPPIPAPRAGAEADRRPSTAQERVWLLHQLDPDRLDHLVTVALDVAGTVDPAAFTAAWTAVVRRHEALRSRFVKADDDRVAVVVDAEAAPEISVLDLARFPAPVRDRLAEERVRLLRTTPIRLDTGPLARFALLRLADRRYRIELAVHHIVCDGWSLDTLLADFLDAYGRALAGRSPALPPPAVGFADYVAWERDVESSRWPDMAVRLARRFADRPADLPLPVDPVDVPAHEDGDDVTVHAPPGLAAAVERARTSFGHTALTFHLTALGVLLARITGVDDLVVAVPVAGRAQTEHEDLVGLFVNTALARVRLGGTSDVRVLLERNRDEVDELVDCQTFPFDRLVDLLGARRAGTRVPLARVSLAVQNFDDPGTPAPELGFTWQFRDPPERQSKFDLAFTVSDTDGLRLTVTYRPSLFRRATVAAWAGQYLVALEHVVRGVADPEGSAR
notes: CmnI, A domain-less NRPS module 3 (T-C didomain) of capreomycin biosynthesis, Saccharothrix mutabilis subsp. capreolus; calculated molecular weight of the apo-form construct 61 484.72 Da; also called A domain-less NRPS module CmnI; source: purified
For B1, the Kd (CmnA-A2-CmnN complex) was 4.93 µM, the koff (CmnA-A2-CmnN complex) was 0.000728 s⁻¹ and the kon (CmnA-A2-CmnN complex) was 148 M⁻¹ s⁻¹. The Kd (CmnA-A1–CmnN complex) was 1.85 µM, the koff (CmnA-A1–CmnN complex) was 0.000477 s⁻¹ and the kon (CmnA-A1–CmnN complex) was 258 M⁻¹ s⁻¹.
